# From paper PMC10448054
# Target: N-protein of the wild-type Cne PRP8 S0 split mini-intein with C1A, maltose-binding protein fused to N-intein (MI^A N) (Cryptococcus neoformans)
# Assay: SPR; Biacore T100; N-proteins (WTNa, ENa) immobilised on a CM5 chip; C-terminal fusion proteins flowed at different concentrations in 10 mM HEPES, 150 mM NaCl, 1 mM EDTA, pH 7.4; KD = kd/ka
substance,measurement,value
"C-protein of the wild-type Cne PRP8 S0 split mini-intein with N185A, C-intein fused to thioredoxin (I^A CT) (domain or fragment)",Ka,608000 M⁻¹
same,Kd,1.65 µM
same,koff,0.0082 s⁻¹
same,kon,4990 M⁻¹ s⁻¹
